# Measured values reported in patent US7642244 (Hoffmann-La Roche, dated 2010).
# Starred links: 1 amine or outer side, 2 acyl side, 3 side chain; linkers in the order of their positions; H or OH if unused. Non-standard residues stand in square brackets, D forms with d. No end group written: not given here. Pqa = 4-oxo-6-(1-piperazinyl)-3(4H)-quinazoline-acetic acid, O=C(Cn1cnc2ccc(N3CCN([*:1])CC3)cc2c1=O)[*:2]; Phe(4-CF3) = N[C@@H](Cc1ccc(C(F)(F)F)cc1)C(=O)O; Phe(F5) = N[C@@H](Cc1c(F)c(F)c(F)c(F)c1F)C(=O)O; NMeR = CN[C@@H](CCCNC(=N)N)C(=O)O
# T1: human NPY2 receptor (human, UniProt P49146 1-381)
# T1 sequence (looked up): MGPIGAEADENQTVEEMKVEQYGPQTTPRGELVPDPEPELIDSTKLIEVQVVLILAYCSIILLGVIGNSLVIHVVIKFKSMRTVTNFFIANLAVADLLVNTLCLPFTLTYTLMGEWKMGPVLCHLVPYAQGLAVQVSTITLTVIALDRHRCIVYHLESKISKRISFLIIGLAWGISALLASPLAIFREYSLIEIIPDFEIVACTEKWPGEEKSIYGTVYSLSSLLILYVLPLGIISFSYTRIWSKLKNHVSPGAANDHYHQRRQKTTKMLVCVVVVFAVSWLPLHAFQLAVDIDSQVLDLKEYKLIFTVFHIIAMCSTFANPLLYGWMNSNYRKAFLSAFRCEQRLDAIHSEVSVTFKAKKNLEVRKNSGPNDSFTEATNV
# T2: Y5R
# T2 sequence (Q15761 whole entry, species assumed, looked up): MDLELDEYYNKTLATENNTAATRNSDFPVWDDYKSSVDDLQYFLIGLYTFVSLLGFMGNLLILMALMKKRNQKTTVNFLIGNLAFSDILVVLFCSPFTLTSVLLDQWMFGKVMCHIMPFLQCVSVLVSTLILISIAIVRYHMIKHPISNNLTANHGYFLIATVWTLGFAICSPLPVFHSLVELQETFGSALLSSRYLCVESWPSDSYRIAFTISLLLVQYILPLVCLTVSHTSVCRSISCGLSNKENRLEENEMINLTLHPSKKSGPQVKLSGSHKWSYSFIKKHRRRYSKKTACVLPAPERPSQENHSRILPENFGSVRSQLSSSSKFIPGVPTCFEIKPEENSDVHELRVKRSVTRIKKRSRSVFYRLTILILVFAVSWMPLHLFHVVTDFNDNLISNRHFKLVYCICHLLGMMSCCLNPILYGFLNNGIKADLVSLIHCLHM
# B1: mixture of ((PEG-30,000)CH2CH2CO)Ile-Lys-Pqa-Arg-His-Tyr-Leu-Asn-Trp-Val-Thr-Arg-Gln-(NMe)Arg-Tyr-NH2 and … (peptide)
# peptide: IK[Pqa]RHYLNWVTRQ[NMeR]Y-NH2
# modifications: also: mixture: PEG30,000 SPA on N-terminal Ile or on Lys ε-amino (majority on Lys)
# B2: ((PEG-30,000)CH(CH3)CH2CO)Ile-Nle-Pqa-Arg-His-Tyr-Leu-Asn-Trp-Val-Thr-Arg-Gln-(NMe)Arg-Tyr-NH2 (peptide)
# peptide: IXXRHYLNWVTRQRY
# modifications: (PEG-30,000)CH(CH3)CH2CO (PEG30,000 beta-SBA) on the N-terminal Ile; Nle as second residue; Pqa as third residue; (NMe)Arg as penultimate residue; C-terminal amide (NH2)
# B3: Benzoyl-Ile-Lys-Pqa-Arg-His-Tyr-Leu-Asn-Trp-Val-Thr-Arg-Gln-(NMe)Arg-Tyr-NH2 (peptide)
# peptide: IKXRHYLNWVTRQRY
# HELM: PEPTIDE1{[O=C(c1ccccc1)[*:2]].I.K.[O=C(Cn1cnc2ccc(N3CCN([*:1])CC3)cc2c1=O)[*:2]].R.H.Y.L.N.W.V.T.R.Q.[meR].Y.[am]}$$$$V2.0
# SMILES: CC[C@H](C)[C@H](NC(=O)c1ccccc1)C(=O)N[C@@H](CCCCN)C(=O)N1CCN(c2ccc3ncn(CC(=O)N[C@@H](CCCNC(=N)N)C(=O)N[C@@H](Cc4c[nH]cn4)C(=O)N[C@@H](Cc4ccc(O)cc4)C(=O)N[C@@H](CC(C)C)C(=O)N[C@@H](CC(N)=O)C(=O)N[C@@H](Cc4c[nH]c5ccccc45)C(=O)N[C@H](C(=O)N[C@H](C(=O)N[C@@H](CCCNC(=N)N)C(=O)N[C@@H](CCC(N)=O)C(=O)N(C)[C@@H](CCCNC(=N)N)C(=O)N[C@@H](Cc4ccc(O)cc4)C(N)=O)[C@@H](C)O)C(C)C)c(=O)c3c2)CC1
# B4: Trimethylacetyl-Ile-Lys-Pqa-Arg-His-Tyr-Leu-Asn-Trp-Val-Thr-Arg-Gln-(NMe)Arg-Tyr-NH2 (peptide)
# peptide: IKXRHYLNWVTRQRY
# HELM: PEPTIDE1{[CC(C)(C)C(=O)[*:2]].I.K.[O=C(Cn1cnc2ccc(N3CCN([*:1])CC3)cc2c1=O)[*:2]].R.H.Y.L.N.W.V.T.R.Q.[meR].Y.[am]}$$$$V2.0
# SMILES: CC[C@H](C)[C@H](NC(=O)C(C)(C)C)C(=O)N[C@@H](CCCCN)C(=O)N1CCN(c2ccc3ncn(CC(=O)N[C@@H](CCCNC(=N)N)C(=O)N[C@@H](Cc4c[nH]cn4)C(=O)N[C@@H](Cc4ccc(O)cc4)C(=O)N[C@@H](CC(C)C)C(=O)N[C@@H](CC(N)=O)C(=O)N[C@@H](Cc4c[nH]c5ccccc45)C(=O)N[C@H](C(=O)N[C@H](C(=O)N[C@@H](CCCNC(=N)N)C(=O)N[C@@H](CCC(N)=O)C(=O)N(C)[C@@H](CCCNC(=N)N)C(=O)N[C@@H](Cc4ccc(O)cc4)C(N)=O)[C@@H](C)O)C(C)C)c(=O)c3c2)CC1
# B5: H-Ile-Nle-Pqa-Arg-His-Tyr-Leu-Asn-Trp-Val-Thr-Arg-Gln-(NMe)Arg-Tyr-NH2 (peptide)
# peptide: IXXRHYLNWVTRQRY
# modifications: Nle as second residue; Pqa as third residue; (NMe)Arg as penultimate residue; C-terminal amide (NH2)
# Columns and labels:
# Test in all cases: cell-based or functional assay
# human NPY2 receptor = target: T1, human NPY2 receptor
# Y4R = target: Y4R
# Y5R = target: T2, Y5R
# Y1R = target: Y1R
# Sequence of Y1R (P25929 whole entry): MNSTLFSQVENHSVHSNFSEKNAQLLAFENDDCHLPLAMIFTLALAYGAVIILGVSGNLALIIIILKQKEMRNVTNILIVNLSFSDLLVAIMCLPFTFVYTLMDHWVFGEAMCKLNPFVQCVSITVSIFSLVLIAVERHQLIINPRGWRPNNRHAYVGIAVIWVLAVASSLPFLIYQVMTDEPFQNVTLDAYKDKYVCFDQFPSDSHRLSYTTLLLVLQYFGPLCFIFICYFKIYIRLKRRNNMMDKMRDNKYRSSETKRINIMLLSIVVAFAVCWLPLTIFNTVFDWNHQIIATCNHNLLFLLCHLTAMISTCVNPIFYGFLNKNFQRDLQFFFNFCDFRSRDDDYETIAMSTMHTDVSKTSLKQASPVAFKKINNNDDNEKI
Binder,Y2R EC50 (nM) FLIPR (human NPY2 receptor) [nM],Y2R EC50 (nM) cAMP (human NPY2 receptor) [nM],Y4R EC50 (nM) FLIPR (Y4R) [nM],Y5R EC50 (nM) FLIPR (Y5R) [nM],Y1R EC50 (nM) FLIPR (Y1R) [nM]
"H-IK[Pqa]RHYLNLVTRQ[NMeR][Phe(F5)]-NH2 [H-Ile-Lys-Pqa-Arg-His-Tyr-Leu-Asn-Leu-Val-Thr-Arg-Gln-(NMe)Arg-2,3,4,5,6 Pentafluoro-Phe-NH2]",11.9,2.5,–,–,–
B1,–,–,> 5000,> 5000,> 5000
H-IK[Pqa]RHYLNLVTRQ[NMeR][Phe(4-CF3)]-NH2 [H-Ile-Lys-Pqa-Arg-His-Tyr-Leu-Asn-Leu-Val-Thr-Arg-Gln-(NMe)Arg-4-trifluoro methyl-Phe-NH2],6.13,3.55,–,–,–
B2,–,–,> 5000,> 5000,> 5000
H-IK[Pqa]RHYLNLVTRQ[NMeR]F-NH2 [H-Ile-Lys-Pqa-Arg-His-Tyr-Leu-Asn-Leu-Val-Thr-Arg-Gln-(NMe)Arg-Phe-NH2],1.54,0.69,–,–,–
B3,0.79,0.66,> 5000,> 5000,> 5000
H-IK[Pqa]RHYLNWVTRQ[NMeR]Y-NH2 [H-Ile-Lys-Pqa-Arg-His-Tyr-Leu-Asn-Trp-Val-Thr-Arg-Gln-(NMe)Arg-Tyr-NH2],0.44,0.25,> 5000,> 5000,298
B4,1.1,0.26,> 5000,> 5000,> 5000
B5,8.1,0.108,> 5000,> 5000,> 5000
"IK[Pqa]RHYLNWVTRQ[NMeR]Y-NH2 (also: mixture: PEG40,000 BTC on N-terminal Ile or on Lys ε-amino)",–,–,> 5000,> 5000,> 5000
